According to PMC5014727 (Structure (London, England : 1993), 2016):
“And” between values parts separate entries of the source, which are not always exact repeats. Equal values may be shown once.

B1: chemically ligated sRAGE (extracellular soluble RAGE, VC1 ligated to C2) (domain or fragment, UniProt Q15109 23-342, looked up)
chain: AQNITARIGEPLVLKCKGAPKKPPQRLEWKLNTGRTEAWKVLSPQGGGPWDSVARVLPNGSLFLPAVGIQDEGIFRCQAMNRNGKETKSNYRVRVYQIPGKPEIVDSASELTAGVPNKVGTCVSEGSYPAGTLSWHLDGKPLVPNEKGVSVKEQTRRHPETGLFTLQSELMVTPARGGDPRPTFSCSFSPGLPRHRALRTAPIQPRVWEPGCSAEVQLVVEPEGGAVAPGGTVTLTCEVPAQPSPQIHWMKDGVPLPLPPSPVLILPEIGPQDQGTYSCVATHSSHGPQESRAVSISIIEPGEEGPTAGSVGGSGLGTLA
B2: Ca2+-S100B dimer (ligand)
chain: MSELEKAMVALIDVFHQYSGREGDKHKLKKSELKELINNELSHFLEEIKEQEVVDKVMETLDNDGDGECDFQEFMAFVAMVTTACHEFFEHE

Columns and labels:
[1] = target: full length RAGE fused with yellow fluorescence protein (human) (UniProt Q15109); experiment: FRET or BRET
sRAGE ECD (Homo sapiens) = sRAGE ECD (Homo sapiens) (UniProt Q15109); conditions: cited from earlier work
cross-linking = target: the molecule itself; experiment: cross-linking
15N NMR relaxation = target: the molecule itself; experiment: 15N NMR relaxation
[2] = target: B1; experiment: ELISA

With “ΔDAD-DIAPH1 fused with cyan fluorescent protein (from UniProt O60610 1-1272) (natural protein)” as the molecule, how does the FRET efficiency (with Ca2+-S100B) [1] read?
The FRET efficiency (with Ca2+-S100B) was 10%.

What about the FRET efficiency (without Ca2+-S100B) [1] of the same molecule?
Its FRET efficiency (without Ca2+-S100B) is 8%.

For sRAGE ECD (from UniProt Q15109), which Kd (sRAGE ECD (Homo sapiens)) is on record?
The Kd was 100 µM.

Which results are given for B1?
stoichiometry N (cross-linking): 2 and 3 and 4; Kd (15N NMR relaxation): 120 ± 12 µM

For B2, which Kd [2] is on record?
Its Kd is 490 ± 43 nM.
